The supplement of paper PMC7877785
± gives the uncertainty stated by the source.

Assay: self-splicing fitness, log relative to wild type (ln ratio); higher = more splicing; Tetrahymena group I intron in knt gene, E. coli kanamycin selection, DiMSum; sequences stand for … in CUCUCU…GGAGGGAAAAGUUAUCAGGCAUGCACCUGGUAGCUAGUCUUUAAACCAAUAGAUUGCAUCGGUUUAAAAGGCAAGACCGUCAAAUUGCGGGAAAGGGGUCAACAGCCGUUCAGUACCAAGUCUCAGGGGAAACUUUGAGAUGGCCUUGCAAAGGGUAUGGUAAUAAGCUGACGGACAUGGUCCUAACCACGCAGCCAAGUCCUAAGUCAACAGAUCUUCUGUUGAUAUGGAUGCAGUUCACAGACUAAAUGUCGGUCGGGGAAGAUGUAUUCUUCUCAUAAGAUAUAGUCGGACCUCUCCUUAAUGGGAGCUAGCGGAUGAAGUGAUGCAACACUGGAGCCGCUGGGAACUAAUUUGUAUGCGAAAGUAUAUUGAUUAGUUUUGGAGUACUCGUGGUCG
In short: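 The eight P1ex-region nucleotides of an intron in the knt kanamycin-resistance gene on pET-22b(+) were all randomised and the library put into E. coli BL21(DE3). Six replicate transformations were grown overnight at 37°C or 30°C on LB agar with or without 25 μg/mL kanamycin, together with 100 μg/mL carbenicillin, 50 μM IPTG and 0.2% rhamnose. Colonies were pooled and amplicon-sequenced on an Illumina HiSeq 2500. Fitness from DiMSum is the error-weighted combination of wild-type-normalised replicate fold changes, kanamycin over none.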

Sequence	self-splicing fitness (ln) (30 °C)	self-splicing fitness (ln) (37 °C)
ACGGAGCAAUAUUACGGAAG	-4.44 ± 0.46	-1.89 ± 0.46
ACGGAGCAAUAUUACGGAGA	–	-2.01 ± 0.46
ACGGAGCAAUAUUACGGCGU	-2.38 ± 0.2	-1.48 ± 0.19
ACGGAGCAAUAUUACGGGCA	-2.06 ± 0.42	–
ACGGAGCAAUAUUACGGGCC	-2.53 ± 0.48	-1.06 ± 0.4
ACGGAGCAAUAUUACGGGUC	–	-2.58 ± 0.38
ACGGAGCAAUAUUACGUAUU	-3.44 ± 0.48	–
ACGGAGCAAUAUUACGUCCC	-1.47 ± 0.25	-0.893 ± 0.2
ACGGAGCAAUAUUACGUGUU	-3.23 ± 0.13	-2.56 ± 0.16
ACGUAGCAAUAUUACGAGGC	–	-2.11 ± 0.39
ACGUAGCAAUAUUACGAUAU	-1.39 ± 0.1	-1.04 ± 0.15
ACGUAGCAAUAUUACGCGAG	-3.43 ± 0.19	-0.232 ± 0.11
ACGUAGCAAUAUUACGCGGU	-3.63 ± 0.16	-2.33 ± 0.17
ACGUAGCAAUAUUACGCGUU	–	-2.49 ± 0.24
ACGUAGCAAUAUUACGCUCU	-0.479 ± 0.12	-0.414 ± 0.15
ACGUAGCAAUAUUACGCUGU	-2.65 ± 0.17	-2.34 ± 0.21
ACGUAGCAAUAUUACGCUUG	-1.26 ± 0.083	-1.28 ± 0.093
ACGUAGCAAUAUUACGGAGA	-3.36 ± 0.44	-2.08 ± 0.24
ACGUAGCAAUAUUACGGCUA	-1.9 ± 0.12	-2.26 ± 0.18
ACGUAGCAAUAUUACGGGGC	-4.11 ± 0.14	-2.73 ± 0.12
ACGUAGCAAUAUUACGGGUG	-2.67 ± 0.086	-1.18 ± 0.085
ACGUAGCAAUAUUACGGUCG	-1.23 ± 0.093	-0.666 ± 0.12
ACGUAGCAAUAUUACGGUCU	-0.728 ± 0.078	-0.139 ± 0.097
ACGUAGCAAUAUUACGUCCG	-1.63 ± 0.12	-0.705 ± 0.11
ACGUAGCAAUAUUACGUCGC	-3.64 ± 0.35	-1.91 ± 0.27

Sequence	self-splicing fitness (ln) (30 °C)	self-splicing fitness (ln) (37 °C)
ACGUAGCAAUAUUACGUUUA	-2.63 ± 0.15	-2.73 ± 0.17
ACUAAGCAAUAUUACGAACA	-1.86 ± 0.18	-0.417 ± 0.19
ACUAAGCAAUAUUACGAAUC	-3.41 ± 0.21	-1.05 ± 0.17
ACUAAGCAAUAUUACGACAC	-0.549 ± 0.1	-0.813 ± 0.13
ACUAAGCAAUAUUACGAUCU	-0.809 ± 0.092	0.314 ± 0.1
ACUAAGCAAUAUUACGAUGC	-1.53 ± 0.091	-0.792 ± 0.11
ACUAAGCAAUAUUACGCAGU	-4.72 ± 0.28	-3.25 ± 0.46
ACUAAGCAAUAUUACGCAUC	-3.13 ± 0.28	-1.54 ± 0.2
ACUAAGCAAUAUUACGCCCA	-0.779 ± 0.11	-0.482 ± 0.13
ACUAAGCAAUAUUACGCCGA	-1.86 ± 0.18	-0.197 ± 0.16
ACUAAGCAAUAUUACGCCUC	-2.41 ± 0.21	-1.64 ± 0.34
ACUAAGCAAUAUUACGCGAG	-1.77 ± 0.082	-0.355 ± 0.089
ACUAAGCAAUAUUACGCGAU	-2.98 ± 0.15	-1.82 ± 0.2
ACUAAGCAAUAUUACGCGUC	-4.43 ± 0.41	-2.1 ± 0.22
ACUAAGCAAUAUUACGGCGA	-0.131 ± 0.1	-0.411 ± 0.13
ACUAAGCAAUAUUACGGCGU	-0.894 ± 0.078	-0.0271 ± 0.1
ACUAAGCAAUAUUACGGGGU	-4.13 ± 0.28	-2.2 ± 0.19
ACUAAGCAAUAUUACGGGUA	-1.77 ± 0.11	-0.856 ± 0.11
ACUAAGCAAUAUUACGUCAG	-2.63 ± 0.16	-1.57 ± 0.23
ACUAAGCAAUAUUACGUGCG	-0.891 ± 0.086	-0.294 ± 0.098
ACUAAGCAAUAUUACGUGGA	-2.99 ± 0.14	-1.49 ± 0.11
ACUAAGCAAUAUUACGUUGU	-3.58 ± 0.16	-2.78 ± 0.18
ACUCAGCAAUAUUACGAAAA	-1.32 ± 0.11	-1.36 ± 0.16
ACUCAGCAAUAUUACGAACC	-0.758 ± 0.097	-0.326 ± 0.1
ACUCAGCAAUAUUACGAAUG	-1.17 ± 0.11	-0.992 ± 0.15

Sequence	self-splicing fitness (ln) (30 °C)	self-splicing fitness (ln) (37 °C)
ACUCAGCAAUAUUACGACGC	-0.134 ± 0.074	0.447 ± 0.088
ACUCAGCAAUAUUACGACUA	-0.633 ± 0.12	-0.128 ± 0.12
ACUCAGCAAUAUUACGAGCC	-1.32 ± 0.079	-0.908 ± 0.11
ACUCAGCAAUAUUACGAGCG	-0.49 ± 0.061	-0.185 ± 0.071
ACUCAGCAAUAUUACGAUGU	-1.35 ± 0.064	-0.811 ± 0.074
ACUCAGCAAUAUUACGAUUG	-2.74 ± 0.084	-1.59 ± 0.1
ACUCAGCAAUAUUACGCACU	-0.199 ± 0.064	0.205 ± 0.079
ACUCAGCAAUAUUACGCGAG	-2.93 ± 0.2	-1.21 ± 0.17
ACUCAGCAAUAUUACGCGGA	-2.79 ± 0.16	-3.35 ± 0.27
ACUCAGCAAUAUUACGCUAG	-1.74 ± 0.094	-1.3 ± 0.11
ACUCAGCAAUAUUACGCUGG	-2.43 ± 0.12	-2.86 ± 0.22
ACUCAGCAAUAUUACGGAAC	-1.64 ± 0.12	-1.76 ± 0.19
ACUCAGCAAUAUUACGGAGG	-2.28 ± 0.13	-1.35 ± 0.17
ACUCAGCAAUAUUACGUAAA	-1.36 ± 0.069	-0.79 ± 0.09
ACUCAGCAAUAUUACGUAAC	-2.79 ± 0.14	-1.2 ± 0.16
ACUCAGCAAUAUUACGUACA	-1.74 ± 0.1	-0.876 ± 0.1
ACUCAGCAAUAUUACGUCAU	-1.29 ± 0.068	-0.61 ± 0.088
ACUCAGCAAUAUUACGUCCU	-1.18 ± 0.094	0.185 ± 0.11
ACUCAGCAAUAUUACGUUUU	-2.1 ± 0.048	-0.817 ± 0.061
ACUGAGCAAUAUUACGACAG	-0.882 ± 0.091	-0.105 ± 0.12
ACUGAGCAAUAUUACGACGG	-1.08 ± 0.1	-0.161 ± 0.13
ACUGAGCAAUAUUACGAGUA	–	-1.6 ± 0.2
ACUGAGCAAUAUUACGCAAC	-3.87 ± 0.31	–
ACUGAGCAAUAUUACGCAUG	-1.95 ± 0.14	-2.23 ± 0.16
ACUGAGCAAUAUUACGCCUC	-2.32 ± 0.31	–

Sequence	self-splicing fitness (ln) (30 °C)	self-splicing fitness (ln) (37 °C)
ACUGAGCAAUAUUACGCGUC	-4.21 ± 0.29	-2.35 ± 0.21
ACUGAGCAAUAUUACGCUGA	-2.19 ± 0.47	-1.2 ± 0.34
ACUGAGCAAUAUUACGCUUC	-3.57 ± 0.24	-3.1 ± 0.28
ACUGAGCAAUAUUACGGAUG	-2.58 ± 0.12	-1.67 ± 0.14
ACUGAGCAAUAUUACGGAUU	-3.91 ± 0.27	-1.59 ± 0.16
ACUGAGCAAUAUUACGGCGA	-1.87 ± 0.099	-1.19 ± 0.11
ACUGAGCAAUAUUACGGCUU	-3.22 ± 0.21	-3.27 ± 0.4
ACUGAGCAAUAUUACGGGGC	-4.03 ± 0.33	-1.57 ± 0.22
ACUGAGCAAUAUUACGUAUG	-3.4 ± 0.15	-1.08 ± 0.14
ACUGAGCAAUAUUACGUCCA	-3.1 ± 0.36	-2 ± 0.4
ACUGAGCAAUAUUACGUCCG	-2.79 ± 0.17	-1.58 ± 0.17
ACUGAGCAAUAUUACGUGGA	-2.94 ± 0.2	-2.88 ± 0.2
ACUGAGCAAUAUUACGUUCA	-3.87 ± 0.28	-1.55 ± 0.2
ACUGAGCAAUAUUACGUUGA	-3.25 ± 0.15	-2.48 ± 0.15
ACUGAGCAAUAUUACGUUUG	-3.97 ± 0.21	-2.53 ± 0.18
ACUGAGCAAUAUUACGUUUU	-4.25 ± 0.26	-2.07 ± 0.18
ACUUAGCAAUAUUACGACUA	-1.81 ± 0.17	-0.513 ± 0.14
ACUUAGCAAUAUUACGACUG	-1.53 ± 0.099	-0.694 ± 0.16
ACUUAGCAAUAUUACGAGUG	-1.17 ± 0.12	-1.58 ± 0.13
ACUUAGCAAUAUUACGAUCC	-1.9 ± 0.15	-0.595 ± 0.2
ACUUAGCAAUAUUACGCCAA	-3.19 ± 0.29	-2.17 ± 0.28
ACUUAGCAAUAUUACGCCCA	-1.29 ± 0.21	-0.528 ± 0.22
ACUUAGCAAUAUUACGCUCG	-0.969 ± 0.1	-0.233 ± 0.16
